Values of other authors in article PMC4847942.
pKd: −log10 of the molar value. Like-named read-outs stand apart in the source and are kept apart here.

What was measured:
Bcl-XL (Homo sapiens) [1] = target: Bcl-XL (Homo sapiens) (UniProt Q07817)
Bcl-XL (Homo sapiens) [2] = target: Bcl-XL (Homo sapiens) (UniProt Q07817); remark: listed apart in the source

Chain of UniProt Q07817 (Q07817 whole entry): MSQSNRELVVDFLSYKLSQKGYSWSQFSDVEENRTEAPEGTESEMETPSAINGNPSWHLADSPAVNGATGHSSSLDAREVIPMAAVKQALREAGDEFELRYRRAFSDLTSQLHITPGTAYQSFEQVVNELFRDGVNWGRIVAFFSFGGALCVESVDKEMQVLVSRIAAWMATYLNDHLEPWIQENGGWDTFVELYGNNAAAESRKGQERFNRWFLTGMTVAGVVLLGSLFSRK

| Substance | pKd (Bcl-XL (Homo sapiens) [1]) | pKd (Bcl-XL (Homo sapiens) [2]) |
| --- | --- | --- |
| Bid BH3 helix BH3 (from UniProt P55957) | 6.57 | – |
| stapled Bid BH3 helix BH3 (from UniProt P55957) | – | 7.41 |
